From the supplement of paper PMC12338614
± gives the uncertainty stated by the source.

B1: library; numbered along this chain (parent)
chain: MEVVDPQQLGMFTEGELMSVGMDTFIHRIDSTEVIYQPRRKRAKLIGKYLMGDLLGEGSYGKVKEVLDSETLCRRAVKILKKKKLRRIPNGEANVKKEIQLLRRLRHKNVIQLVDVLYNEEKQKMYMVMEYCVCGMQEMLDSVPEKRFPVCQAHGYFCQLIDGLEYLHSQGIVHKDIKPGNLLLTTGGTLKISDLGVAEALHPFAADDTCRTSQGSPAFQPPEIANGLDTFSGFKVDIWSAGVTLYNITTGLYPFEGDNIYKLFENIGKGSYAIPGDCGPPLSDLLKGMLEYEPAKRFSIRQIRQHSWFRKKHPPAEAPVPIPPSPDTKDRWRSMTVVPYLEDLHGADEDEDLFDIEDDIIYTQDFTVPGQVPEEEASHNGQRRGLPKAVCMNGTEAAQLSTKSRAEGRAPNPARKACSASSKIRRLSACKQQ

Variants of: B1
Assay: STK11 functional score (HeLa growth suppression), rescaled enrichment; synonymous median = 1, nonsense median = 0 (normalised score)
Conditions: with HeLa; variant type: missense
In short: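 In HeLa, Bxb1 integrated POPCode codon-randomised libraries of codon-optimised STK11 at an AAVS1 landing pad; three regions were each transfected three times. Integrants, marked as BFP-negative and mCherry-positive, were FACS-sorted 4–5 days after electroporation and expanded for about two weeks before tiled gDNA amplicons were sequenced on NextSeq (~2 million reads per tile). Each functional score is a post/pre-selection log ratio corrected to wild type, rescaled to the synonymous and nonsense medians, and merged across codons and replicate transfections, with error estimated by bootstrapping.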

| Variant | STK11 functional score |
| --- | --- |
| V133W | 0.452 ± 0.079 |
| A273L | 0.931 ± 0.1 |
| R310D | 1.6 ± 0.15 |
| D352T | 1.57 ± 0.15 |
| D352A | 0.984 ± 0.58 |
| D352E | 1.15 ± 0.64 |
| Q371S | 1.32 ± 0.15 |
| Q371D | 1.43 ± 0.11 |
| Q123P | 0.451 ± 0.33 |
| L183E | 0.3 ± 0.082 |
| R103L | 0.918 ± 0.12 |
| E223I | 0.17 ± 0.24 |
| L50S | 1.09 ± 0.12 |
| L50C | 1.41 ± 0.2 |
| S169A | 1.09 ± 0.49 |
| S169H | 1.43 ± 0.33 |
| S421I | 1.52 ± 0.13 |
| G381K | 1.59 ± 0.29 |
| D355H | 1.11 ± 0.65 |
| E65V | 0.734 ± 0.15 |
| E65P | 0.657 ± 0.32 |
| G385Q | 1.57 ± 0.24 |
| G385T | 1.58 ± 0.21 |
| G385E | 1.41 ± 0.67 |

| Variant | STK11 functional score |
| --- | --- |
| G385S | 1.51 ± 0.2 |
| E256F | 0.982 ± 0.22 |
| F231L | 0.842 ± 0.35 |
| S283R | 1.29 ± 0.41 |
| I46M | 0.908 ± 0.76 |
| H313C | 1.26 ± 0.29 |
| K416N | 0.923 ± 0.4 |
| N226W | 1.65 ± 0.24 |
| V20H | 1.44 ± 0.17 |
| T71M | 0.604 ± 0.21 |
| S299G | 1.18 ± 0.52 |
| G61Y | 0.11 ± 0.086 |
| V372S | 1.44 ± 0.3 |
| V372Y | 1.48 ± 0.33 |
| V337A | 1.24 ± 0.17 |
| V337S | 0.723 ± 0.17 |
| G47A | 1.4 ± 0.58 |
| R331I | 1.16 ± 0.2 |
| R331N | 1.35 ± 0.21 |
| T212W | 1.41 ± 0.36 |
| R304A | 1.49 ± 0.18 |
| R304I | 0.364 ± 0.3 |
| N393F | 1.52 ± 0.31 |
| N393H | 1.51 ± 0.48 |

| Variant | STK11 functional score |
| --- | --- |
| E293P | 0.842 ± 0.41 |
| A198H | 1.54 ± 0.13 |
| A198Y | 1.04 ± 0.51 |
| Y261F | 0.449 ± 0.14 |
| A93S | 0.907 ± 0.2 |
| I267R | 1.01 ± 0.33 |
| Q432R | 1.6 ± 0.16 |
| S232G | 0.97 ± 0.2 |
| P217V | 0.177 ± 0.36 |
| K235S | 1.67 ± 0.14 |
| R301A | 1.56 ± 0.16 |
| R301F | 1.55 ± 0.22 |
| F148D | -0.396 ± 0.083 |
| I79W | -0.0803 ± 0.077 |
| D359E | 0.865 ± 0.47 |
| T13G | 0.27 ± 0.17 |
| P323D | 1.33 ± 0.44 |
| P323L | 0.92 ± 0.24 |
| I361L | 1.31 ± 0.35 |
| V143H | 1.44 ± 0.18 |
| V143R | 1.29 ± 0.22 |
| Y156V | 1.06 ± 0.36 |
| S378T | 1.4 ± 0.26 |
| R104V | 0.88 ± 0.21 |

| Variant | STK11 functional score |
| --- | --- |
| R104F | 1.19 ± 0.3 |
| D358R | 1.34 ± 0.27 |
| P38D | 1.7 ± 0.3 |
| V368Q | 0.833 ± 0.5 |
| T186Y | 1.14 ± 0.14 |
| C73V | 1.55 ± 0.24 |
| R383A | 1.44 ± 0.36 |
| R383N | 1.5 ± 0.16 |
| S240C | 1.38 ± 0.098 |
| S240H | 1.08 ± 0.12 |
| S216E | -0.148 ± 0.092 |
| F234L | 0.75 ± 0.11 |
| F219L | 1.11 ± 0.13 |
| L117N | 1.44 ± 0.56 |
| A218Q | 1.25 ± 0.29 |
| R39I | 1.12 ± 0.38 |
| R39D | 1.19 ± 0.099 |
| L427E | 1.53 ± 0.25 |
| L427T | 1.59 ± 0.16 |
| K431Y | 1.48 ± 0.18 |
| I224P | 0.889 ± 0.11 |
| I224N | 1.47 ± 0.42 |
| M22G | 1.07 ± 0.099 |
| M22P | 1.54 ± 0.16 |

| Variant | STK11 functional score |
| --- | --- |
| M22V | 1.13 ± 0.69 |
| M22C | 1.21 ± 0.38 |
| M22S | 1.68 ± 0.34 |
| T336P | 1.18 ± 0.18 |
| P387Q | 1.37 ± 0.32 |
| P387W | 1.62 ± 0.29 |
| F298D | 1.48 ± 0.12 |
| D258V | 1.39 ± 0.37 |
| D258C | 1.16 ± 0.32 |
| D258S | 1.42 ± 0.44 |
| E342M | 1.46 ± 0.14 |
| Q37W | 0.288 ± 0.12 |
| H168P | 0.0717 ± 0.12 |
| N412M | 0.405 ± 0.69 |
| N412L | 1.62 ± 0.21 |
| D229R | 0.991 ± 0.36 |
| D229S | 1.01 ± 0.28 |
| G215Y | 1.08 ± 0.31 |
| G215D | 0.255 ± 0.12 |
| L113A | 0.492 ± 0.17 |
| N266W | 0.574 ± 0.1 |
| W239K | 0.155 ± 0.096 |
| W239E | -0.254 ± 0.099 |
| E199V | 1.49 ± 0.23 |

| Variant | STK11 functional score |
| --- | --- |
| R87A | 0.186 ± 0.13 |
| R87P | 1.24 ± 0.12 |
| R28V | 1.03 ± 0.29 |
| E92F | 1.56 ± 0.53 |
| T363D | 1.45 ± 0.16 |
| Y36H | 1.39 ± 0.48 |
| D348L | 1.3 ± 0.15 |
| K96I | 1.08 ± 0.17 |
| K96F | 0.801 ± 0.17 |
| Q305C | 1.27 ± 0.4 |
| L182F | 1.03 ± 0.16 |
| A241D | 0.383 ± 0.2 |
| Q100E | 1.25 ± 0.76 |
| A316I | 1.32 ± 0.3 |
| A406G | 1.33 ± 0.31 |
| K423N | 1.52 ± 0.34 |
| I322F | 1.25 ± 0.22 |
| R147Q | 0.506 ± 0.12 |
| R147E | -0.0954 ± 0.2 |
| R405N | 1.33 ± 0.36 |
| R405P | 1.27 ± 0.49 |
| G279E | 0.538 ± 0.088 |
| G279T | 1.57 ± 0.21 |
| G279P | 1.17 ± 0.33 |

| Variant | STK11 functional score |
| --- | --- |
| K82D | 1.17 ± 0.19 |
| K81T | 1.35 ± 0.3 |
| K81G | 1.04 ± 0.1 |
| A205C | 1.25 ± 0.39 |
| A43Y | 1.67 ± 0.16 |
| I35P | 1.69 ± 0.16 |
| I35L | 1.11 ± 0.1 |
| V4P | 1.03 ± 0.13 |
| V4F | 0.964 ± 0.46 |
| L286W | 1.16 ± 0.093 |
| T185C | 1.13 ± 0.22 |
| I424S | 1.37 ± 0.2 |
| I424R | 1.5 ± 0.17 |
| I424T | 1.49 ± 0.18 |
| L341D | 1.6 ± 0.17 |
| M18C | 0.902 ± 0.4 |
| W332G | 1.55 ± 0.14 |
| K178C | 0.883 ± 0.25 |
| I260D | 1.16 ± 0.21 |
| F255Q | 0.98 ± 0.44 |
| R426S | 1.5 ± 0.26 |
| S142Q | 1.69 ± 0.26 |
| S142E | 1.55 ± 0.18 |
